These results are taken from US20250027068.

To fix the notation:
B1: PRT-607 (protein)
chain: MQITSVWTYGVKPLTPEQFRYNNEDVIHAPYLEHQGWYDITKAFDGKDNLLCGAATAGNMLHWWFDQNKTEIEAYLSKHPEKQKIIFNNQELFDLKAAIDTKDSQTNSQLFNYFRDKAFPNLSARQLGVMPDLVLDMFINGYYLNVFKTQSTDVNRPYQDKDKRGGIFDAVFTRGDQTTLLTARHDLKNKGLNDISTIIKQELTEGRALALSHTYANVSISHVINLWGADFNAEGNLEAIYVTDSDANASIGMKKYFVGINAHGHVAISAKKIEGENIGAQVLGLFTLSSGKDIWQKLSLEHHHHHH
B2: PRT-629 (protein)
chain: MQITSVWTKGVTPLTPEQFRYNNEDVIHAPYLAHQGWYDITKAFDGKDNLLCGAATAGNMLHWWFDQNKEEIEAYLKKYPEKQKIIFNNQELFDLKAAIDTKDSQTNSQLFNYFRDKAFPNLSARQLGVMPDLVLDMFINGYYLNVFKTQSTDVNRPYQDKDKRGGIFDAVFTRGDQTTLLTARHDLKNKGLNDISTIIKQELTEGRALALSHTYANVSISHVINLWGADFNAEGNLEAIYVTDSDANASIGMKKYFVGINAHGHVAISAKKIEGENIGAQVLGLFTLSSGKEIWQKLSLEHHHHHH
B3: PRT-620 (protein)
chain: MQITSVWTKGVTPLTPEQFRYNNEDVIHAPYLAHQGWYDITKAFDGKDNLLCGAATAGNMLHWWFDQNKTEIEAYLSKHPEKQKIIFNNQELFDLKAAIDTKDSQTNSQLFNYFRDKAFPNLSARQLGVMPDLVLDMFINGYYLNVFKTQSTDVNRPYQDKDKRGGIFDAVFTRGDQTTLLTARHDLKNKTLKEISDIIKQELTEGRALALSHTYANVSISHVINLWGADFNAEGNLEAIYVTDSDANASIGMKKYFVGINAHGHVAISAKKIEGENIGAQVLGLFTLSSGKDIWQKLSLEHHHHHH
B4: PRT-654 (protein)
chain: MQITSVWTKGVTPLTPEQFRYNNEDVIHAPYLAHQGWYDITKAFDGKDNLLCGAATAGNMLHWWFDQNKTEIEAYLSKHPEKQKIIFNNQELFDLKAAIDTKDSQTNSQLFNYFRDKAFPNLSARQLGVMPDLVLDMFINGYYLNVFKTQSTDVNRPYQDKDKRGGIFDAVFTRGDQTTLLTARHDLKNKGLNDISTIIKQELTEGRALALSHTTGNVSYSHVINLWGADFNAEGNLEAIYVTDSDANASIGMKKYFVGINAHGHVAISAKKIEGENVGAQVLGLFTLSSGKDIWQKLSLEHHHHHH
B5: PRT-671 (protein)
chain: MQITTVWTKGVTPPTPEQFRNNNEDVFHAPYLPHQGWYDITKAFDGKDNLLCGAATAGNMLHWWFDQNKEEIEAYLKKYPEKQKIIFNNQELFDLRKAINTKDSQTNSQLFNYFRDKAFPNLSARQLGVMPDHVLDMFINGYYLNVFKTQSTDVNRPYQTRDKRGGIFDAVFNRGDQTTLLTERHDLYNKGLDDISTLIKQELSSGKALGLSHTYANVSISHVINLWGADFNAEGNLEAIYVTDSDDDASIGMKKYYVGKNASGHVRISAKKIEGENIGAQVLGLFTLSTGKDIWQKLSLEHHHHHH
B6: PRT-666 (protein)
chain: MQITSVWTKGVTPPTPEQFRNNNEDVFHAPYLANQGWYDITKTFNGKDDLLCGAATAGNMLHWWFDQNKTEIEAYLKKHPEKQKIIFNNQELFDLKKAIDTKDSQTNSQLFNYFRDKAFPNLSARQLGVMPDLVLDMFINGYYLNVTKTQSTDVNRPYQDKDKRGGIFDAVFTRGDQTTLLTSRHDLKNKGLNEISDLIKQELTEGKALALSHTYANVSINHVINLWGADFNAEGNLEAIYVTDSDSNASIGMKKYFVGVNASGKVAISAKKIEGENIGAQVLGLFTLSSGKDIWQKLSLEHHHHHH
B7: PRT-565 (protein)
chain: MANQEIRYSEATPSHITSVWTKGVTPPTQFIQNEDVLHAPYIANQGWYDITKTFNGKDDLLCGAATAGNMLHWWFDQNKEQIENYLKKHPEKQKINFNGEQMFDVKEAIDTKDSQTDSALFSYFKDKAFPYLSTKHLGVFPDHVIDMFINGYRLSLTNHGPTPVKRQTKDPRGGIFDAVFTRGDQSKLLTSRHDFKEKTLNEISQLIKQELTEGKALGLSHTYANVRINHVINLWGADFNAEGNLEAIYVTDSDSNASIGMKKYYVGVNSAGKVAISAKEIEGDNIGAQVLGLFTLSTGQDIWQQTNLEHHHHHH
B8: PRT-532 (protein)
chain: MANQEIRYSEETPKTITSIWTKGVTPPTDFIKNEDVLHAPYIANQGWYDITKTFNGKDDLLCGAATAGNMLHWWFDQNKEEIENYLKKHPEKQKINFNGEQMFDVKEAIDTKDSQTDSKLFEYFKDKAFPYLSTKHLGVMPDLVLDMFINGYYLSLGKHGPTPVKRGTKDPRGGIFDAVFTRGDQSKLLTARHDFKEKTLNEISDLIKQELTEGKALALSHTYANVRINHVINLWGADFNSEGNLEAIYVTDSDSNASIGMKKYYVGVNAAGKVAISAKEIEGDNIGAQVLGLFTLSTGQDIWNQTNLEHHHHHH
B9: PRT-66 (protein)
chain: MANQEIRYSEVTPYHVTSVWTKGVTPPANFTQGEDVFHAPYVANQGWYDITKTFNGKDDLLCGAATAGNMLHWWFDQNKDYIKRYLEEHPEKQKINFNGEQMFDVKEAIDTKNHQLDSKLFEYFKEKAFPYLSTKHLGVFPDHVIDMFINGYRLSLTNHGPTPVKEGSKDPRGGIFDAVFTRGDQSKLLTSRHDFKEKNLKEISDLIKKELTEGKALGLSHTYANVRINHVINLWGADFDSNGNLKAIYVTDSDSNASIGMKKYFVGVNSAGKVAISAKEIKEDNIGAQVLGLFTLSTGQDSWNQTN

In the series the target is pooled human IgG.
B1 came in with an Enzyme Activity Endpoint Assay (purified): Fab′2 of 779 ng/µL, an Enzyme Activity Endpoint Assay (purified): Fc of 470 ng/µL, an Enzyme Activity Endpoint Assay (purified): IgG of 0 ng/µL and an Enzyme Activity Endpoint Assay (purified): scIgG of 0 ng/µL.
As for B2, the Enzyme Activity Endpoint Assay (purified): Fab′2 is 542 ng/µL, the Enzyme Activity Endpoint Assay (purified): Fc was determined as 425 ng/µL, the Enzyme Activity Endpoint Assay (purified): IgG is 161 ng/µL and the Enzyme Activity Endpoint Assay (purified): scIgG came out at 461 ng/µL.
As for B3, the Enzyme Activity Endpoint Assay (purified): Fab′2 was determined as 792 ng/µL, the Enzyme Activity Endpoint Assay (purified): Fc worked out at 448 ng/µL, the Enzyme Activity Endpoint Assay (purified): IgG was determined as 0 ng/µL and the Enzyme Activity Endpoint Assay (purified): scIgG came to 0 ng/µL.
Regarding B4, the Enzyme Activity Endpoint Assay (purified): Fab′2 was 401 ng/µL, the Enzyme Activity Endpoint Assay (purified): Fc came out at 0 ng/µL, the Enzyme Activity Endpoint Assay (purified): IgG was 1170 ng/µL and the Enzyme Activity Endpoint Assay (purified): scIgG is 11 ng/µL.
The corresponding values for B5 are 97 ng/µL, 294 ng/µL, 244 ng/µL and 864 ng/µL.
With B6, the Enzyme Activity Endpoint Assay (purified): Fab′2 is 897 ng/µL, the Enzyme Activity Endpoint Assay (purified): Fc turned out to be 132 ng/µL, the Enzyme Activity Endpoint Assay (purified): IgG was 66 ng/µL and the Enzyme Activity Endpoint Assay (purified): scIgG was 0 ng/µL.
The corresponding values for B7 are 783 ng/µL, 471 ng/µL, 0 ng/µL and 0 ng/µL.
On the same counts, the results for B8 are 409 ng/µL, 118 ng/µL, 506 ng/µL and 217 ng/µL.
Turning to B9, the Enzyme Activity Endpoint Assay (purified): Fab′2 came out at 49 ng/µL, the Enzyme Activity Endpoint Assay (purified): Fc came out at 115 ng/µL, the Enzyme Activity Endpoint Assay (purified): IgG was 15 ng/µL and the Enzyme Activity Endpoint Assay (purified): scIgG was 13 ng/µL.
